doi:10.1101/2020.01.09.899237 (bioRxiv, 2020)

B1: FITC-labelled JD_(1-77) (domain or fragment)
chain: not shown
modifications: FITC-maleimide label (site not stated)

Legend:
[1] = target: HspA1A (human Hsp70) (human, UniProt P0DMV8 1-641); assay: fluorescence polarisation
[2] = target: the molecule itself; assay: cross-linking
[3] = target: the molecule itself; assay: dynamic light scattering
[4] = target: B1; assay: fluorescence polarisation
[5] = target: B1; assay: MST

Chain of HspA1A (human Hsp70) (P0DMV8 whole entry): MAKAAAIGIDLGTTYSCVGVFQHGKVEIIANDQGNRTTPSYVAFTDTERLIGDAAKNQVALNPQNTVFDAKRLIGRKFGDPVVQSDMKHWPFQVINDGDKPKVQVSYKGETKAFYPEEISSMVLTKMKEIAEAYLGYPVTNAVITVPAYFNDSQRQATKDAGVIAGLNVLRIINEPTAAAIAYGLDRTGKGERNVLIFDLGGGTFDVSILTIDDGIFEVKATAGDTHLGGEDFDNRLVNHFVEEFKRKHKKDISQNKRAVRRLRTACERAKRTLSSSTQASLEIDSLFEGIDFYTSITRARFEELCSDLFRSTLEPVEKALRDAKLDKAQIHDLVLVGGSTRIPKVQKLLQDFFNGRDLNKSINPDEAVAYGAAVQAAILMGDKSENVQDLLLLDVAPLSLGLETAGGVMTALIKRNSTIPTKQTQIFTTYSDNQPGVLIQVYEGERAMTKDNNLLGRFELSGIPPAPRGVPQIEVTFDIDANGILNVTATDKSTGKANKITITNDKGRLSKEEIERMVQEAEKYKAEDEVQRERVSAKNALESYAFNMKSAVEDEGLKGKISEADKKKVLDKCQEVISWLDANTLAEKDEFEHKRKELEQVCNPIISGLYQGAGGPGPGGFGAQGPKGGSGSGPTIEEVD

## B1
[1]
  Kd: 257 ± 29 nM

B2: DnaJB8-mClover3 fusion protein (natural protein, human, UniProt Q8NHS0 1-232, looked up)
chain: MANYYEVLGVQASASPEDIKKAYRKLALRWHPDKNPDNKEEAEKKFKLVSEAYEVLSDSKKRSLYDRAGCDSWRAGGGASTPYHSPFDTGYTFRNPEDIFREFFGGLDPFSFEFWDSPFNSDRGGRGHGLRGAFSAGFGEFPAFMEAFSSFNMLGCSGGSHTTFSSTSFGGSSSGSSGFKSVMSSTEMINGHKVTTKRIVENGQERVEVEEDGQLKSVTVNGKEQLKWMDSK
[2]
  binding result: binds

B3: DnaJB8 (recombinant full-length wild type) (natural protein, human, UniProt Q8NHS0 1-232, looked up)
chain: MANYYEVLGVQASASPEDIKKAYRKLALRWHPDKNPDNKEEAEKKFKLVSEAYEVLSDSKKRSLYDRAGCDSWRAGGGASTPYHSPFDTGYTFRNPEDIFREFFGGLDPFSFEFWDSPFNSDRGGRGHGLRGAFSAGFGEFPAFMEAFSSFNMLGCSGGSHTTFSSTSFGGSSSGSSGFKSVMSSTEMINGHKVTTKRIVENGQERVEVEEDGQLKSVTVNGKEQLKWMDSK
[3]
  binding result: binds

B4: DnaJB8 C-terminal domain CTD_(170-232) (domain or fragment, human, UniProt Q8NHS0 170-232, looked up)
chain: GGSSSGSSGFKSVMSSTEMINGHKVTTKRIVENGQERVEVEEDGQLKSVTVNGKEQLKWMDSK
[4]
  Kd: 542 ± 71 nM
[5]
  Kd: 5360 ± 1150 nM
